Measurements: publication PMC12262204
Where two headings read alike, the source gives them in different places.

What was measured:
Assay in all cases: BLI
[1] = biological target: T1, Biotin-CGRP(8-37)NH2[N31D/S34P/K35W/A36S] (human)
T1 sequence (P06881 90-119 with N31D S34P K35W A36S, looked up): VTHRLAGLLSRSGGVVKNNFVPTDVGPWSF

[2] = biological target: biotin-CGRP(8-37)NH2 (human)
[3] = biological target: T1, Biotin-CGRP(8-37)NH2[N31D/S34P/K35W/A36S] (human); remark: listed apart in the source

half-life [1]: 1.52 min
residence time [1]: 2.18 min
Kd [2]: 52.2 µM
koff [2]: 3.3 s⁻¹
kon [2]: 63300 M⁻¹ s⁻¹
residence time [3]: 132 s
Substance: RAMP1.24-111-(GS)5-CLR.29-134-H6 (CLR:RAMP1 ECD fusion protein) (from UniProt O60894 24-111; Q16602 29-134) (receptor)
